From patent US7892775B2, “Fluorescence assay for kinase activity” (Massachusetts Institute of Technology, priority 2003, dated 2011)
Marks after values point to notes of the source that are not given here. Sox = metal binding amino acid

How the values were obtained:
[1] = target: T1, cAMP-dependent Protein Kinase (Catalytic Subunit) (Mus musculus, UniProt P05132); assay: Continuous fluorescence kinase assay, kinetic constants of Sox peptide substrate with PKA; type: biochemical; conditions: 20 mM HEPES pH 7.4, 10 mM MgCl2, 1 mM ATP, 1 mM DTT, 40 units PKA, 30° C.; average of four Hanes plots
T1 construct: purchased Calbiochem
Method: A typical reaction contained solution 5 (90 μl), solution 6 (20 μl), solution 7 (1 μl) and an appropriate volume of substrate stock solution. Enzyme working stock (1 μl) was added to begin the reaction.
5 nm emission and excitation slit widths were used.
Substitution of (2) into (I) followed by rearrangement, yields: […]

Protein Kinase Cα = Protein Kinase Cα (Homo sapiens, UniProt P17252); conditions: 20 mM HEPES pH 7.4, 10 mM MgCl2, 0.3 mM CaCl2, 1 mM ATP, 0.7 nM PKCα, 30° C.; average of four Hanes plots
Method: PKC: On the day of the assay, a 1 μl aliquot of Protein Kinase Cα (Human, Recombinant, Calbiochem) was diluted with 20 μl of solution 4 and stored on ice. A typical reaction contained solution 4 (84 μl), solution 6 (19 μl), solution 8 (5 μl), solution 7 (1 μl), and enzyme working stock (1 μl). An appropriate volume of substrate stock solution was added to begin the reaction.
Fluorescence experiments were performed on a Fluoromax 3 from Jobin Yvon. 5 nm emission and excitation slit widths were used. For all experiments, an excitation wavelength of 360 nm was used. Enzyme assays were performed by monitoring emission at 485 nm.
To solve for Km and Vmax for this reaction, determination of the initial rate of product formation from the increase in fluorescence intensity is necessary. With this sensor, a correction for the decrease in fluorescence intensity due to the starting material being consumed is needed to determine the rate of product formation from the initial slope. The fluorescence intensity at any given point can be determined from the following equation: I(t)=fSS(t)+fPP(t) (1) where I(t) is the fluorescence intensity, S(t) is the amount of substrate in μM, P(t) is the amount of product in μM, fS is the fluorescence intensity per μM) of substrate, and fP is fluorescence intensity per μM of product. The amount of substrate and product at any given point are related by: S(t)+P(t)=S0 (2) where S0 is the initial amount of substrate. Substitution of (2) into (I) followed by rearrangement, yields:
The initial slope of the reaction, dI(t)/dt, was measured within the first 5% of substrate turnover. The constants fP and fS were calculated from the slope of a line of fluorescence intensity versus concentration of P and S, respectively. A linear fit of a Hanes plot ([…]) was used to find Km and Vmax.

Km [1] [µM] | Vmax [1] | Substance | Km (Protein Kinase Cα) [µM] | Vmax (Protein Kinase Cα)
1.8 ± 0.5 | 3.7 ± 1.6^f μmol/min/mg | Ac-Leu-Arg-Arg-Ala-Ser-Leu-Pro-Sox-NH2 (Ac-LRRASLP-{Sox-NH2}) [Ac-LRRAS*LP-Sox-NH2, Sox-containing peptide substrate (sensor) for PKA] | – | –
– | – | Ac-Sox-Pro-Gly-Ser-Phe-Arg-Arg-Arg-NH2 [Ac-Sox-PGS*FRRR-NH2] | 8.6 ± 2.9 | 5.9 ± 1.9^d μmol/min/mg
– | – | Ac-Sox-Pro-Gly-Thr-Phe-Arg-Arg-Arg-NH2 ({Ac-Sox}-PGTFRRR-NH2) [Ac-Sox-PGT*FRRR-NH2] | 23 ± 3 | 2.3 ± 0.6^d μmol/min/mg
